The results in this text go back to publication PMC3158102.

In this assay the target is IQ motif containing GTPase activating protein 1 (IQGAP1), endogenous in differentiated HL-60 cells (human (endogenous in HL-60)) (UniProt P46940). Kind of assay: co-IP; rabbit anti-IQGAP1 antibody and Protein A/G agarose; lysates of differentiated HL-60 cells expressing CXCR2, vehicle or 100 ng/ml CXCL8 for 1 or 5 min; western blot for Cdc42, densitometry.
Sequence of IQ motif containing GTPase activating protein 1 (IQGAP1), endogenous in differentiated HL-60 cells (human (endogenous in HL-60)) (P46940 whole entry): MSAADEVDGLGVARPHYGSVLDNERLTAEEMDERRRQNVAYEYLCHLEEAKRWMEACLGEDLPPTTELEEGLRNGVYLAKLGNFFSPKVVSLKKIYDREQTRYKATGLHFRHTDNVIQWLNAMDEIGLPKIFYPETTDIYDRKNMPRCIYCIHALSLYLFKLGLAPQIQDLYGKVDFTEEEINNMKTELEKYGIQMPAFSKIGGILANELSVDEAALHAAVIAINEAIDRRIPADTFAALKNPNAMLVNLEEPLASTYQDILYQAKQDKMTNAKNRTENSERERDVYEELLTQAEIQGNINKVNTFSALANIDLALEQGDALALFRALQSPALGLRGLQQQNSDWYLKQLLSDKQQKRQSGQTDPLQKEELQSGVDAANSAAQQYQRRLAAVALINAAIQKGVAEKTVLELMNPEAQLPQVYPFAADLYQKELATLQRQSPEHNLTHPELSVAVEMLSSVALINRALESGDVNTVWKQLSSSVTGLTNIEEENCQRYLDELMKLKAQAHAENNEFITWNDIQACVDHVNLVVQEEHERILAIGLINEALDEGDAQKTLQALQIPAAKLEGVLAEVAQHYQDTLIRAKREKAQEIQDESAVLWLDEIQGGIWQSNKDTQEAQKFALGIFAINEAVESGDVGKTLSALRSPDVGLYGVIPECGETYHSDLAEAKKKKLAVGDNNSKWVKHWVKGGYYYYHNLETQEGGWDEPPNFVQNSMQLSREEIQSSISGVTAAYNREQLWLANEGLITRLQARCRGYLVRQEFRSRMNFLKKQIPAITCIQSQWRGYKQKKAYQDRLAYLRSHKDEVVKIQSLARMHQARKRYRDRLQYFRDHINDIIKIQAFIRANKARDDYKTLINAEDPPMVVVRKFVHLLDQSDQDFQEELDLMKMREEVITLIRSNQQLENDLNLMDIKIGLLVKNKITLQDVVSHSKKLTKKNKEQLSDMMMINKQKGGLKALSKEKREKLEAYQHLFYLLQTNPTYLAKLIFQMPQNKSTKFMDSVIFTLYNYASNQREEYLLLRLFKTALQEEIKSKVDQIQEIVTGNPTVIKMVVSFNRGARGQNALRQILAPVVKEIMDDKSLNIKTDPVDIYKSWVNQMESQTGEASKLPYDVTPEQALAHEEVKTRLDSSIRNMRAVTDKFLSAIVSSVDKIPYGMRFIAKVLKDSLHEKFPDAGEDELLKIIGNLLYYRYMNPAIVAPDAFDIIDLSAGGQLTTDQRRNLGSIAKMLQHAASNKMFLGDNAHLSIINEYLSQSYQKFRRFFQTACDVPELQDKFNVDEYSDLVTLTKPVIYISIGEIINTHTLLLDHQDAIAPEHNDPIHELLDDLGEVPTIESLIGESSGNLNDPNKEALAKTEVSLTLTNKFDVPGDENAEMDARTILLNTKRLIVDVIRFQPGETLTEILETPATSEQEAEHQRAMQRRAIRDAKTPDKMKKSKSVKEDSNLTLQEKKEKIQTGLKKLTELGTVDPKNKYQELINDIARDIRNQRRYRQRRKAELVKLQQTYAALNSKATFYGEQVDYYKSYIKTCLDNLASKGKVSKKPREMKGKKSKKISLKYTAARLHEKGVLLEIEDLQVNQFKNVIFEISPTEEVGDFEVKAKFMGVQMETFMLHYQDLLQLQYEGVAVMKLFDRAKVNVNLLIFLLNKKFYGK

Sequence of Cdc42, endogenous in differentiated HL-60 cells expressing CXCR2, P60953 1-191 (natural protein; other documents disagree on this pair) (P60953 whole entry): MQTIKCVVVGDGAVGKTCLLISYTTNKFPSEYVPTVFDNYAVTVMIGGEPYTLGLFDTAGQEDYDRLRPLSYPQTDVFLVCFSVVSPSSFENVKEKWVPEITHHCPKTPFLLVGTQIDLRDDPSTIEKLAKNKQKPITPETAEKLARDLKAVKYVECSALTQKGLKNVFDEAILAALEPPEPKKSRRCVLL

“Cdc42, endogenous in differentiated HL-60 cells expressing CXCR2, P60953 1-191 (natural protein; other documents disagree on this pair)” returned a fold increase in co-immunoprecipitated Cdc42 after 1 min of CXCL8 over untreated cells of 1.36 fold.
